From PMC10621992 (PLOS Pathogens, 2023)
Each block holds one binder with its values, some of them ahead of it.

Molecular target: T1, GST-BLK, prokaryotically expressed and purified (human, UniProt P51451 1-505)
T1 construct: also called purified recombinant BLK; not shown: GST, N-terminal, kept
Assay: pull-down
Conditions: both partners purified

T1 sequence (P51451 whole entry): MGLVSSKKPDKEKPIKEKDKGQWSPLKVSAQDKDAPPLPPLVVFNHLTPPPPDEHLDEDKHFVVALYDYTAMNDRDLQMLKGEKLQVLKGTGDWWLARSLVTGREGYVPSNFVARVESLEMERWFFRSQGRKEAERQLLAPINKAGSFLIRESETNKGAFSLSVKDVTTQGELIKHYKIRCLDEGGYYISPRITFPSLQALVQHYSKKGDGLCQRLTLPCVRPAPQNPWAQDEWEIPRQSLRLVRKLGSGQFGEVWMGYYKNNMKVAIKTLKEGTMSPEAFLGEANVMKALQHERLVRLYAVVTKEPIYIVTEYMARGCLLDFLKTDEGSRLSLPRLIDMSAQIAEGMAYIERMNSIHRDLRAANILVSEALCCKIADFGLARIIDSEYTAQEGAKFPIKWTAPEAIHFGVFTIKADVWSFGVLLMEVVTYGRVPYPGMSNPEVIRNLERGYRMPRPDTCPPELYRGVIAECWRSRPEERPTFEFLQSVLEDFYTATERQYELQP

binding result: binds
B1: IRF3-Flag, purified from HEK293 cells (natural protein, human, UniProt Q14653 1-427, looked up)
chain: MGTPKPRILPWLVSQLDLGQLEGVAWVNKSRTRFRIPWKHGLRQDAQQEDFGIFQAWAEATGAYVPGRDKPDLPTWKRNFRSALNRKEGLRLAEDRSKDPHDPHKIYEFVNSGVGDFSQPDTSPDTNGGGSTSDTQEDILDELLGNMVLAPLPDPGPPSLAVAPEPCPQPLRSPSLDNPTPFPNLGPSENPLKRLLVPGEEWEFEVTAFYRGRQVFQQTISCPEGLRLVGSEVGDRTLPGWPVTLPDPGMSLTDRGVMSYVRHVLSCLGGGLALWRAGQWLWAQRLGHCHTYWAVSEELLPNSGHGPDGEVPKDKEGGVFDLGPFIVDLITFTEGSGRSPRYALWFCVGESWPQDQPWTKRLVMVKVVPTCLRALVEMARVGGASSLENTVDLHISNSHPLSLTSDQYKAYLQDLVEGMDFQGPGES

binding result: binds
B2: His-IRF3, prokaryotically expressed and purified (natural protein, human, UniProt Q14653 1-427, looked up)
chain: B1 chain
notes: not shown: His, N-terminal, kept
